This note sets out measurements from publication PMC10359924, “Identification and characterisation of anti-IL-13 inhibitory single domain antibodies provides new insights into receptor selectivity and attractive opportunities for drug discovery” (Frontiers in Immunology, 2023).

Experiment [1] deals with human Interleukin-13 (IL-13) (1-113) (Homo sapiens). As to the kind of experiment: cell-based or functional assay.
The target of experiment [2] is T1, human Interleukin-13 (IL-13) (1-113) (Homo sapiens).
T1 construct: source: 15N or 15N/13C labelled for NMR
As to the kind of experiment: BLI; Octet QKe; N-terminally His-tagged VHH loaded on Ni-NTA biosensors (100 nM), titrated with untagged IL-13; 300 s association, 300 s dissociation; 25°C; HBS-EP+ (10 mM HEPES pH 7.4, 150 mM NaCl, 3 mM EDTA, 0.005% Tween-20); steady-state curves, one-site binding model. The note with it: both partners purified. (BLI is a label-free optical method that tracks binding on a fibre tip over time.)

T1 sequence (chain, as listed by the source): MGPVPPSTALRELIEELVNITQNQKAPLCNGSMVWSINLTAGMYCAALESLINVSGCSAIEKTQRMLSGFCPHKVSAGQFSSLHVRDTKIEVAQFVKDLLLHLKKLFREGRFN

B1: VHH210 (VHH)
VHH: EVQLVESGGGLVQPGGSLRLSCAASGFTFSSSWMYWVRQVPGKGLEWLSDVDPGGGNTYYADSVKGRFTISRDNAKKVLYLQMNSLKPEDTAVYYCNADTYVPKDGGGWSPEYDIWGQGTQVTVSS
notes: From a naive llama VHH phage library (UCB Biopharma); cloned into pET21a(+); not shown: His6, N-terminal, kept
As a reminder, the Kd is the concentration at which binding is half-saturated. The low end stands for a tighter complex, the high end for a looser complex. For the molecule B1, the “IC50 of inhibition of IL-13 signalling (STAT6/SEAP reporter, HEK-Blue IL-4/IL-13 cells); blocks IL-13 signalling through IL-13Rα1 and IL-4Rα” value in experiment [1] was 0.2 µM. Also, the Kd in experiment [2] came out at 0.04 µM.

B2: VHH251 (VHH)
VHH: EVQLVESGGGLVQPGGSLRLSCQASGFAFSSSTMYWVRQTPGKGLEWVSSITRGGTNTYYRDSVKGRFTISRDNNKNALYLQMNSLKPEDTAVYYCNADTYVPKDGGGWSPEYDIWGQGTLVTVSS
notes: as for B1
Turning to B2, the “IC50 of inhibition of IL-13 signalling (STAT6/SEAP reporter, HEK-Blue IL-4/IL-13 cells); blocks IL-13 signalling through IL-13Rα1 and IL-4Rα” value in experiment [1] worked out at 6.9 µM. Further, binding in experiment [2] was characterised by a dissociation constant (Kd) of 2.2 µM.

B3: VHH264 (VHH)
VHH: EVQLVESGGGLVQPGGSLRLSCQASGFAFSSSTMYWVRQTPGKGLEWVSSITRGGTNTYYRDSVKGRFTISRDDAKNTLYLQMNSLKPEDTAVYYCNADTYVPKDGGGWSPDYDIWGQGTQVTVSS
notes: as for B1
For B3, the “IC50 of inhibition of IL-13 signalling (STAT6/SEAP reporter, HEK-Blue IL-4/IL-13 cells); blocks IL-13 signalling through IL-13Rα1 and IL-4Rα” value in experiment [1] came to 14.5 µM. For the same molecule, in experiment [2], the Kd was 3.9 µM.

B4: VHH227 (VHH)
VHH: EVQLVESGGNLVQPGGSLRLSCAASGFTFSKYAMNWVRQAPGKGLEWVSAINSFAGSTSYADSVKGRFTISRDNAKNTLYLQMNSLKPEDTAVYYCKYRGYYGQGTQVTVSS
notes: as for B1
Take B4: the “IC50 of inhibition of IL-13 signalling (STAT6/SEAP reporter, HEK-Blue IL-4/IL-13 cells); blocks IL-13 signalling through IL-13Rα1 and IL-4Rα” value in experiment [1] was 63.5 µM. In experiment [2], this molecule returned a dissociation constant Kd of 5.5 µM.

B5: VHH238 (VHH)
VHH: EVQLVESGGGLVQPGGSLRLSCAASGFTISNHDMHWVRQAPGKGLEWVSSINPGGTYTEYRDSVKGRFTISRDNAKNTLYLQMNDLKPQDTAVYYCNAWGKGVEYDYWGQGTQVTVSS
notes: as for B1
B5: the “IC50 of inhibition of IL-13 signalling (STAT6/SEAP reporter, HEK-Blue IL-4/IL-13 cells); blocks IL-13 signalling through IL-13Rα1 and IL-4Rα” value in experiment [1] amounted to 1.7 µM. This molecule showed a Kd in experiment [2] of 0.2 µM.

B6: VHH214 (VHH)
VHH: EVQLVESGGGLVQAGGSLRLSCAASGLLFDINDMGWYRQAPGKQREMVATIRSGGSTVYAEAVKGRFTISRDDAKHSVHLQMNNLKPEDSAVYYCHRTYNSYADWGQGTQVTVSS
notes: as for B1
In the case of B6, in experiment [1], the “IC50 of inhibition of IL-13 signalling (STAT6/SEAP reporter, HEK-Blue IL-4/IL-13 cells); blocks IL-13 signalling through IL-13Rα1 and IL-4Rα” value stood at 154 µM. In addition, in experiment [2], the Kd was found to be 4.8 µM.

B7: VHH235 (VHH)
VHH: EVQLVESGGGLVQPGGSLRLSCAASGFNFGNSAMSWFRQAPGKGLEWVSSINSGGGGSVYRASVKGRFTISRDDAKNTLFLQMNSLKPEDTAVYYCNADTYVPKDGGGWSPEYDIWGQGTLVTVSS
notes: as for B1
For the molecule B7, the “IC50 of inhibition of IL-13 signalling (STAT6/SEAP reporter, HEK-Blue IL-4/IL-13 cells); blocks IL-13 signalling through IL-13Rα1 and IL-4Rα” value in experiment [1] came out at 74.3 µM. For the same molecule, the Kd in experiment [2] turned out to be 3.6 µM.

B8: VHH281 (VHH)
VHH: EVQLVESGGGLVQPGGSLRLSCAASGFTFGSYDMSWVRQAPGKGPEWVSYIDSGGRTTYYADSVKGRFTISRDNARNTVYLQMNSLKPEDTAVYYCAREAHGSGWSAANYYGMDYWGEGTQVTVSS
notes: as for B1
In the case of B8, the “IC50 of inhibition of IL-13 signalling (STAT6/SEAP reporter, HEK-Blue IL-4/IL-13 cells); blocks IL-13 signalling through IL-13Rα1 and IL-4Rα” value in experiment [1] worked out at 34.3 µM. Moreover, the Kd in experiment [2] was found to be 0.4 µM.

B9: VHH229 (VHH)
VHH: EVQLVESGGGLVQPGGSLRLSCAASGFTFRRYDMSWVRQVPGKGLEWVSDINSGGDSTNYADSVKGRFTISRDNNKNVLYLQMNSLKPEDTAVYYCNADTYVPKDGGGWSPEYDIWGQGTQVTVSS
notes: as for B1
On to B9, for which the “IC50 of inhibition of IL-13 signalling (STAT6/SEAP reporter, HEK-Blue IL-4/IL-13 cells); blocks IL-13 signalling through IL-13Rα1 and IL-4Rα” value in experiment [1] amounted to 11.4 µM. For the same molecule, the Kd in experiment [2] was determined as 0.2 µM.

B10: VHH201 (VHH)
VHH: EVQLVESGGGLVQAGESLTLSCAASGNSFDDYAVGWFRQAPGKEREGVGCINCETGVTTYYADSVKGRFTIHRDNAKNTVYLQMNSLKLEDTATYYCAADRWGTRLVAATYDYWGQGTQVTVSS
notes: as for B1
Consider B10, for which the “IC50 of inhibition of IL-13 signalling (STAT6/SEAP reporter, HEK-Blue IL-4/IL-13 cells); blocks IL-13 signalling through IL-13Rα1 and IL-4Rα” value in experiment [1] is 37.7 µM. This molecule returned a Kd in experiment [2] of 0.9 µM.

B11: VHH228 (VHH)
VHH: QVQLVESGGGLVQPGGSLTLSCAVSGFRFDDYAIGWFRQAPGKEREGVGCINCETGVTTYYADSVKGRFTIHRDNAKNTVYLQMNSLKLEDTATYYCAADRWGTRLVAATYDYWGQGTQVTVSS
notes: as for B1
Consider B11, for which, in experiment [1], the “IC50 of inhibition of IL-13 signalling (STAT6/SEAP reporter, HEK-Blue IL-4/IL-13 cells); blocks IL-13 signalling through IL-13Rα1 and IL-4Rα” value amounted to 56 µM. Further, binding in experiment [2] was put at a Kd of 0.9 µM.

B12: VHH204 (VHH)
VHH: EVQLVESGGGLVQAGGSLRLSCVASGRTISSYAMTWVRHAPGKGLEWVSTISTDASNTYYADSVKGRFTVSRDNAKNTVYLQMNSLKPEDTALYYCARVRLDGWEYDYWGQGTQVTVSS
notes: From a naive llama VHH phage library (UCB Biopharma); cloned into pET21a(+); also called VH204; not shown: His6, N-terminal, kept
B12: the “IC50 of inhibition of IL-13 signalling (STAT6/SEAP reporter, HEK-Blue IL-4/IL-13 cells); blocks IL-13 signalling through IL-13Rα1 and IL-4Rα” value in experiment [1] worked out at 26.2 µM. Further, the Kd in experiment [2] amounted to 2.6 µM.

B13: VHH209 (VHH)
VHH: EVQLVESGGGLVQPGGSLRLSCAASGFTFSNYAMSWVRQAPGKGLEWVSSIESGSSRTIYRDSVKGRFTISRDNAKNTVYLQMNSLKPEDTAVYYCNADTYVPKDGSGWSPEYDVYGQGTQVTVSS
notes: as for B1
On to B13, for which, in experiment [1], the “IC50 of inhibition of IL-13 signalling (STAT6/SEAP reporter, HEK-Blue IL-4/IL-13 cells); blocks IL-13 signalling through IL-13Rα1 and IL-4Rα” value was determined as 67.8 µM. Further, in experiment [2], the Kd was determined as 2.2 µM.

B14: VHH234 (VHH)
VHH: EVQLVESGGGLVQPGGSLRLSCAASGFTFSSYAMNWVRQAPGKGLEWVSAINSGGGTTDYADSVKGRFTISRDNAKNTLYLQMNSLKPEDTAVYYCARGKLGNGLEWGQGTQVTVSS
notes: as for B1
With B14, the “IC50 of inhibition of IL-13 signalling (STAT6/SEAP reporter, HEK-Blue IL-4/IL-13 cells); blocks IL-13 signalling through IL-13Rα1 and IL-4Rα” value in experiment [1] was 49.6 µM. Moreover, in experiment [2], the Kd is 4.1 µM.

B15: VHH245 (VHH)
VHH: EVQLVESGGDLVQPGGSLRLSCSASGFTFDDYAMNWIRQAPGKGLEWVSSISWNGDSTYYAESMKGRFTISRDNAKNTLYLQMNSLQSEDTAVYYCNAQEYVGAHVYDYWGQGTQVTVSS
notes: as for B1
For B15, the “IC50 of inhibition of IL-13 signalling (STAT6/SEAP reporter, HEK-Blue IL-4/IL-13 cells); blocks IL-13 signalling through IL-13Rα1 and IL-4Rα” value in experiment [1] was 3.7 µM. This molecule came in with a Kd in experiment [2] of 0.2 µM.
